Data on three molecules can be found in US20090011981A1, “Novel Inhibitors of Angiogenesis” (K.U. LEUVEN RESEARCH & DEVELOPMENT, priority 2004, published 2009).

Assay [1] deals with bFGF-induced angiogenesis (rat cornea neovascularization). The assay is described as follows: Rat corneal micropocket assay for angiogenesis. In kind it is in vivo. The procedure: In vivo angiogenesis was assessed using the rat cornea micropocket assay as previously described [Addison et al. cited above]. Briefly, reagents were diluted in PBS plus 0.25% serum albumin to their final concentration per pellet of Hydron casting solution (Hydro Med Sciences, New Brunswick N.J.). 5 μl aliquots were pipetted onto the flat surface of a sterile polypropylene specimen container and were allowed to polymerize overnight under UV light in a laminar flow hood. Prior to implantation, the pellets were rehydrated with normal saline. Animals were given 150 mg/kg ketamine and 250 μg/kg atropine, and the corneas were anesthetized with 0.5% proparacaine hydrochloride ophthalmic solution followed by implantation of the Hydron pellet into an intracorneal pocket (1-2 mm from the limbus). Six days after implantation, animals received heparin (1000 U) and ketamine (150 mg/kg) i.p. 30 min prior to sacrifice, followed by perfusion with 10 ml of colloidal carbon via the left ventricle. Corneas were then harvested and photographed. […] Sustained directional ingrowth of capillary sprouts and hairpin loops toward the implant were considered positive neovascularization responses.

Assay [2] deals with Human lung microvascular endothelial cells (HMVEC-L). As to the kind of experiment: Endothelial cell chemotaxis assay (bFGF- or CXCL8-induced HMVEC migration). In kind it is cell-based. Conditions: for inhibition of CXCL8-induced HMVEC chemotaxis: CXCL8 80 ng/ml; for inhibition of the migration of the cells: at a concentration of 50 ng/ml; for inhibition of bFGF-induced HMVEC chemotaxis: bFGF 50 ng/ml; for migration of HMVEC toward bFGF or CXCL8 (FIG. 4 Panel C): test protein 50 ng/ml, bFGF 50 ng/ml or CXCL8 80 ng/ml. The procedure: Human lung microvascular endothelial cells (HMVEC-L) were obtained from Clonetics (Walkersville, Md.), and were cultured following the manufacturer's instructions in EBM-2 medium supplemented with the EGM-2-MV “bulletkit” containing FCS, ascorbic acid, hydrocortisone, fibroblast growth factor (FGF), vascular endothelial growth factor (VEGF), insulin-like growth factor I (IGF-I) and epidermal growth factor (EGF). Endothelial cell chemotaxis assays were performed as previously described [Addison et al. (2002) J Immunol 165, 5269-5277]. Cells were harvested by trypsinization, resuspended in EBM-2 medium without growth factors with 2% FCS added. An aliquot of 160 μl containing 5×10^5 cells/ml was added to each of the lower wells of a 12-well chemotaxis chamber (Neuro Probe Inc., Cabin John Md.). The chambers were assembled (by placing 0.1% gelatin coated 5 μm pore size filters over the lower wells, followed by a gasket and the upper chamber) and incubated at 37° C. in a CO2 incubator for 2 h in an inverted position. The chambers were then turned upright, and 100 μl aliquots of sample dilutions were added to the upper wells of the chamber. As endothelial cell chemoattractants CXCL8 and bFGF (both from Peprotech) were used. The chambers were placed in a 37° C. CO2 incubator for 2 h at which time the filters were removed, and subjected to Diff-Quik staining. The total number of migrated cells was counted in 15 separate fields of view under 400× power.

Assay [3] in a line: Heparin-Sepharose affinity chromatography (heparin affinity). In kind it is binding. The conditions noted are these: for salt concentration at elution from heparin-Sepharose column: linear NaCl gradient 0.05-2 M, pH 7.4. The procedure:
For large scale PF4 production, outdated platelets (Red Cross blood transfusion centre, Belgium) were stimulated with 1 U/ml thrombin (Sigma, St. Louis, Mo.) for 2 h at 37° C. in PBS. The conditioned medium was subsequently purified by a purification procedure previously described [Struyf et al (2003), cited above, Van Damme et al. (1992) J Exp Med 176, 59-65; Struyf et al. (2000) in Balkwill, F. ed. Cytokine molecular biology, a practical approach. Oxford, UK, Oxford University Press, pp 73-88]. The conditioned media (1 to 5 liters) were first concentrated and partially purified by adsorption to silica (“Silica Matrex”; pore size 100 A, particle size 35-70 μm; Millipore, Billerica, Mass.; 10 g/l conditioned medium). After 2 h of magnetical stirring at 4° C., the silicic acid was sedimented by centrifugation and subsequently washed once with PBS and once with PBS containing 1 M NaCl pH 7.4. Elution of proteins from the silica matrix was done by magnetically stirring three consecutive times with 100 ml of PBS containing 1.4 M NaCl and 50% ethylene glycol pH 7.4 during 30 min at 4° C. A second elution with 0.3 M glycine/HCl pH 2.0 buffer (2×100 ml) was performed to improve recovery of chemokines. Subsequently, the pooled eluates (500 ml) were dialyzed against equilibration/loading buffer (50 mM Tris/HCl-50 mM NaCl, pH 7.4) before fractionation by heparin-Sepharose chromatography (Amersham Pharmacia Biotech, Uppsala, Sweden). Proteins were eluted from the column in a linear NaCl gradient (0.05-2 M NaCl in the loading buffer; 5 ml-fractions). For all fractions, the protein concentration was determined by a Coomassie blue G-250 binding assay using the Bio-Rad commercial kit (Bio-Rad Laboratories, Hercules, Calif.). […] Purified fractions were analyzed by SDS-PAGE under reducing conditions to determine purity. […]

For a further assay, the system named is murine melanoma cells. Conditions: systemic treatment, mice injected i.v. with murine melanoma cells; cited from earlier work.
A further assay deals with B16 melanoma tumors. As to the kind of experiment: Intratumoral injection of B16 melanoma tumors. Conditions: 1 μg recombinant human PF4var1, 6 intratumoral injections over 2 weeks, B16 melanoma in nu/nu mice. It is filed as in vivo, athymic nu/nu mice. As to the method:
Animal experiments were approved by the local animal ethics committee (University of Leuven), and conducted in conformity with the Belgian and European guidelines for the protection of animals used for scientific purposes. Experiments were performed with 6 to 8 weeks old female athymic nu/nu mice (NMRI background) kept in a specific pathogen-free environment (Elevage Janvier, Le Genest Saint Isle, France). Two consecutive experiments were performed, the first comprising 20 mice, the second 18 mice. B16 melanoma cells in log phase (2×10^6 cells resuspended in 200 μl of PBS) were injected subcutaneously on day 1 in the right dorsal flank. Animals were injected at the tumor site with 50 μl of test sample, i.e. endotoxin-free saline (0.9% NaCl, Baxter, Lessines, Belgium), 5 pg of natural human PF4 or 1 μg of recombinant human PF4var1 in saline. Treatment started on day 3, in total 6 intratumoral injections were administered three times a week over a period of 2 weeks. All animals were observed three times a week, the tumor dimensions were measured with calipers and tumor size was calculated (tumor volume=4/3Πab^2; a is the smallest diameter/2 and b is the largest diameter/2 in millimeters). At the end of the experiments tumor size was calculated more precisely after dissection of the tumor using the formula 4/3Πabc (a, b and c width/2, length/2 and depth/2, respectively). […]

The mark [4] stands for this setting: 50 ng of the cytokine alone, six days after implantation.
Where [5] appears, read: 50 ng combined with bFGF (50 ng).

Values joined by “and” are separate entries in the source; they are usually repeats but may differ in a detail not shown here. Equal entries are not always repeated.

With “bFGF: Fibroblast growth factor used as endothelial cell chemoattractant and angiogenesis inducer (Peprotech) [reference compound]”, in assay [1] (setting [4]), the “No of neg pellets (no neovascularization / total pellets implanted)” value is on record as 0/25 and the “No of pos pellets (angiogenic response / total pellets implanted)” value is given as 25/25.

B1: PF4: Platelet Factor 4, CXC chemokine; authentic natural human PF4 purified from platelets as comparator (protein)
chain: EAEEDGDLQCLCVKTTSQVRPRHITSLEVIKAGPHCPTAQLIATLKNGRKICLDLQAPLYKKIIKKLLES
As for B1, in assay [2] (test protein 300 ng/ml), the “inhibition of CXCL8-induced HMVEC chemotaxis” value is “failed to inhibit” and the “inhibition of bFGF-induced HMVEC chemotaxis” value is given as “failed to inhibit”. For the same molecule, in assay [2], the “inhibition of the migration of the cells” value is given as around 80% and the “migration of HMVEC toward bFGF or CXCL8 (FIG. 4 Panel C)” value is recorded as “reduce migration”. For the same molecule, the “inhibition of migration of HMVEC” value in assay [2] (at concentrations as high as 300 ng/ml, toward bFGF or CXCL8) was “practically no inhibition”. Also, in assay [1] (setting [5]), the “% inhibition of bFGF-induced angiogenesis” value worked out at 23%; the “No of neg pellets (no neovascularization / total pellets implanted)” value was 5 of 22 and 5/22; the “No of pos pellets (angiogenic response / total pellets implanted)” value was 17/22. For the same molecule, in assay [1] (setting [4]), the “No of neg pellets (no neovascularization / total pellets implanted)” value is listed as 17/22 and the “No of pos pellets (angiogenic response / total pellets implanted)” value is listed as 5/22. Also, the “salt concentration at elution from heparin-Sepharose column” value in assay [3] is reported as 1.6-1.8 M NaCl. In addition, the “dose for optimal inhibition of metastases or lung weight” value with murine melanoma cells is recorded as > 5 mg PF4 per kg of body weight.

B2: PF4var1: natural and recombinant versions of the human natural variant of the PF4 protein; 70 amino acid mature form, SEQ ID NO: 1 (protein, listed as Homo sapiens)
chain: EAEEDGDLQCLCVKTTSQVRPRHITSLEVIKAGPHCPTAQLIATLKNGRKICLDLQALLYKKIIKEHLES
modifications: mat_peptide (1)..(70) PFvar1
Turning to B2, in assay [2] (test protein 10-100 ng/ml), the “inhibition of CXCL8-induced HMVEC chemotaxis” value was “completely blocked” and the “inhibition of bFGF-induced HMVEC chemotaxis” value was “completely blocked”. Further, the “potency on angiogenesis relative to PF4” value in assay [2] (PF4var1 versus PF4) came out at 100 fold. In assay [2], the “inhibition of the migration of the cells” value is listed as around 100% and the “migration of HMVEC toward bFGF or CXCL8 (FIG. 4 Panel C)” value is on record as “reduce migration”. In assay [2] (chemotaxis of HMVEC toward bFGF or CXCL8), the “concentration giving an inhibition of 50% of the migration of HMVEC” value is given as “around 2.5 ng/ml”. In assay [1] (setting [5]), the “% inhibition of bFGF-induced angiogenesis” value was 73%; the “No of neg pellets (no neovascularization / total pellets implanted)” value is 16 of 22 and 16/22; the “No of pos pellets (angiogenic response / total pellets implanted)” value is reported as 6/22. In addition, in assay [1] (setting [4]), the “No of neg pellets (no neovascularization / total pellets implanted)” value is 21/22 and the “No of pos pellets (angiogenic response / total pellets implanted)” value is reported as 1/22. The tumor growth result in the assay with B16 melanoma tumors was “capable of reducing tumor growth”. Further, the “heparin binding affinity compared with PF4” value in assay [3] (based on elution at lower salt concentrations from heparin-Sepharose) was “lower affinity than PF4”. Also, in assay [3], the “salt concentration at elution from heparin-Sepharose column” value is 1-1.4 M NaCl.
